Laboratory results from the RNAGym collection of RNA variant scans (doi:10.7554/elife.80360).

B1: HDV Ribozyme (parent)
chain: GGCCGGCAUGGUCCCAGCCUCCUCGCUGGCGCCGGCUGGGCAACAUUCCGAGGGGACCGUCCCCUCGGUAAUGGCGAAUGGGACCCA

Variants of: B1
Experiment: self-cleavage, relative activity (ratio to wild type); higher = more cleavage; co-transcriptional

| Variant | self-cleavage |
| --- | --- |
| GGCCGGCAUGGUCCCAGCCUCCUCGCUGGCGCCGGCUGGGCAACAUUCCGAGGGGACCGUCCCCUCGGUAGUGGGGAAUGGGACCCA [A71G C75G] | 0.0755 |
| GGCCGGAAUGGUCCCAGCCUCCUCGCUGGCGCCGGCUGGGCAACAUUCCGAGGGGACCGUCCCCUCGGCAAUGGCGAAUGGGACCCA [C7A U69C] | 0.617 |
| GGCCGGCAUGGUCCCAGCCUCCUCGCUGGCGCCGGCUGGACAACAUUCCGAGGGGACAGUCCCCUCGGUAAUGGCGAAUGGGACCCA [G40A C58A] | 0.906 |
| GGCCGGCAUGGUCCCAGCCUCCUCGCUGGCGCCGGCUGGGCAAGAUUCCGAGGGGACCGUCCCCUCGGUAAUGGCGAAUGGGAACCA [C44G C84A] | 0.394 |
| GGCCGGCAUGGUCCCAGCCUCCUCGCUGGCGCCGGCUGGGCAACAUUCCGAGGGGACCGUCCCCUCGUUAAUGGCGAGUGGGACCCA [G68U A78G] | 0.639 |
| GGCCGGCAUGGUCCCAGCCUCCUCGCUGGCGCCGGCUGGGCAACAUUCCCAGGGGACCGUCCCCUCGGUAAGGGCGAAUGGGACCCA [G50C U72G] | 0.415 |
| GGCCGGCAUGGUCCCAGCCUCCUCGCUGGCGCCGGCUGGGCAACAUUCCGAGGGGACCGUCACCUCGGUAAUGGCGAGUGGGACCCA [C62A A78G] | 0.78 |
| GGCCGGCAUGGUCCAAGCCUCCUCGCUGGCGCCGGCUGGGCAACAUUCCGAGGGGACCGUCCCCUCGGUGAUGGCGAAUGGGACCCA [C15A A70G] | 0.755 |
| GGCCGGCAUGGUCCCAGCCUCCUCGCUGGCGCCGGCUGGGCAACAUUCCGAGGGGAUCGUCCCCUCGUUAAUGGCGAAUGGGACCCA [C57U G68U] | 1.17 |
| GGCCGGCAUGGUCCAAGCCUCCUCGCUGGCGCCGGCUGGGCAACAUUCCGAGGGGACCGUACCCUCGGUAAUGGCGAAUGGGACCCA [C15A C61A] | 0.831 |
| GGCCGGCAUGGUCCCAGACUCCUCGCUGGCGCCGGCUGGGCAACAUUCCGAGGGGACCGUCCCCUAGGUAAUGGCGAAUGGGACCCA [C18A C66A] | 0.208 |
| GGCCGGCAUGGUCCCAACCUCCUCGCCGGCGCCGGCUGGGCAACAUUCCGAGGGGACCGUCCCCUCGGUAAUGGCGAAUGGGACCCA [G17A U27C] | 0.309 |
| GGCCGGCAUGGUCCCAGCCUCCUCGCUGGCUCCGGCUGGGCAACAUUCCGAGGGGACCGUCCCCUCGGUAAGGGCGAAUGGGACCCA [G31U U72G] | 0.128 |
| GGCCGGCAUGGUCCCAGCCUCCUCGCUGGCGCCGGAUGGGGAACAUUCCGAGGGGACCGUCCCCUCGGUAAUGGCGAAUGGGACCCA [C36A C41G] | 0.18 |
| GGCCGGCAUGUUCCCAGCCUCCUCGCUGGCGCCGGCUGGGCAACAUUCCGAGGGGACCGUCCCCUCGGUAAUGGGGAAUGGGACCCA [G11U C75G] | 0.0264 |
| GGCCGGCAUGGUCCCAGCCUCCUCGCUGGCGCCGGCUGGGCAACACUCCGAGGGGACCGUCCCCUCGGUAAUGGCGUAUGGGACCCA [U46C A77U] | 0.104 |

| Variant | self-cleavage |
| --- | --- |
| GGGCGGCAUGGUCCCAGCCUCCUCGCUGGCGCCGGCUGGGCAACAUUCCGAAGGGACCGUCCCCUCGGUAAUGGCGAAUGGGACCCA [C3G G52A] | 0.702 |
| GGCCGGCAUGGUUCCAGCCUCCUCGCUGGCGCCGGCUGGGCAAUAUUCCGAGGGGACCGUCCCCUCGGUAAUGGCGAAUGGGACCCA [C13U C44U] | 0.185 |
| GGCCGGCAUGGUCCCAGCCUCCUCGCUGGCGCCGGCUGGGCAACAUUCCGAGGGGACCGUCCCCUCGGUAAUGGCGAAUGGCACACA [G82C C85A] | 0.147 |
| GGCCAGCAUGGUCCCAGCCUCCUCGCUGGCGCCGGCUGGGCAACAUUCCGAGGGGACCGUCCCCUCGGUAAUAGCGAAUGGGACCCA [G5A G73A] | 0 |
| GGCCGGCAUGGUCCCAGCCUCCUCGCUUGCGCCGUCUGGGCAACAUUCCGAGGGGACCGUCCCCUCGGUAAUGGCGAAUGGGACCCA [G28U G35U] | 0.0936 |
| GGCCGGCAUGGUCCCAGCCUCCUCGCUGGCGCCGGCUGGGCAACAUUCCGACGGGACCGUCCCCUCGGGAAUGGCGAAUGGGACCCA [G52C U69G] | 0.914 |
| GGCCGGCAUGGUCCCAGCCACCUCGCUAGCGCCGGCUGGGCAACAUUCCGAGGGGACCGUCCCCUCGGUAAUGGCGAAUGGGACCCA [U20A G28A] | 0.145 |
| GGCCGGGAUGGUCCCAGCCUGCUCGCUGGCGCCGGCUGGGCAACAUUCCGAGGGGACCGUCCCCUCGGUAAUGGCGAAUGGGACCCA [C7G C21G] | 0 |
| GGCCGGCAUGGUCCCAGCCUCCUCGCGGGCGCCGGCUGGGCAACAUUCCGAGGGGACCGUCCCCUCGGUAAUGGCAAAUGGGACCCA [U27G G76A] | 0.98 |
| CGCCGGCAUGGUCCCAGCCUCCUCGCUGGCGCCGGCUGGGCAACAUUCCGAGGGGACCGUCCCAUCGGUAAUGGCGAAUGGGACCCA [G1C C64A] | 0.231 |
| GGCCGGCAUGGUCCCAGCCGCCUCGCUGGCGCCGGCUGGGCAACAUUCCGAGGGGACCGUCCCCUCGGUAAUGGGGAAUGGGACCCA [U20G C75G] | 0 |
| GGCUGGCAUGGUCCCAGCCUCCUCGCUGGCGCCGGCUGGGCAACAUUCCGAGGGGACCGUCCCCUCGGUAAUGCCGAAUGGGACCCA [C4U G74C] | 0.0791 |
| GGCCGGCAUGGUCCCAGCCUCCUCGCUGGCGCCGGCUGCGCAACAUUCCGAGGGGACCGUCCCCUCGGUAAUGGCGAAUGGGACCCC [G39C A87C] | 0.323 |
| GGCCGGCAUGGUGCCAGCCGCCUCGCUGGCGCCGGCUGGGCAACAUUCCGAGGGGACCGUCCCCUCGGUAAUGGCGAAUGGGACCCA [C13G U20G] | 0 |
| GGCCGGCAUGGUCCCAGCCUCCUCGCUGGAGCCGGCUGGGCAACAUUCCGAGGGGACCGUCCCCUCGGUAGUGGCGAAUGGGACCCA [C30A A71G] | 0.517 |
| GGCCGGCAUGCUCCCAGCCUCCUCGCUGGCGCCGGCUGGGCAACAUUCCGAGGGGACCGUCCCCUCGGUAAUCGCGAAUGGGACCCA [G11C G73C] | 0.0346 |
